Consider 5 molecules from US10253078 (ZEALAND PHARMA A S, dated 2019).

The target of test [1] is T1, human GIP receptor (human, UniProt P48546 22-466).
T1 sequence (looked up): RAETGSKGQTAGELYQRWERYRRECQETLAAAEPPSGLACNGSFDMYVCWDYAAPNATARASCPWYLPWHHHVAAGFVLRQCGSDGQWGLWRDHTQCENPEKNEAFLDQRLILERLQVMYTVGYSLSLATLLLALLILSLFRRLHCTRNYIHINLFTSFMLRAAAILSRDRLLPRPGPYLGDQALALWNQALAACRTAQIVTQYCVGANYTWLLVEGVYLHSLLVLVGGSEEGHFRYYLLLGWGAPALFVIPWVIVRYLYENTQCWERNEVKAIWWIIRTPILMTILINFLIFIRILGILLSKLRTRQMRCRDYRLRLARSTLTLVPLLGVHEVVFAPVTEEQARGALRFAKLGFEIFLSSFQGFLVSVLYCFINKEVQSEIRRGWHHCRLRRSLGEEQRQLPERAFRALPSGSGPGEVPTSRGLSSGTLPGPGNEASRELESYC
Nature of the test: cell-based or functional assay.

Test [2] has as its target T1, human GIP receptor. As to the kind of experiment: cell-based or functional assay. This is another data set of the same source.

Starred links: 1 amine or outer side, 2 acyl side, 3 side chain; linkers in the order of their positions; H or OH if unused. Non-standard residues stand in square brackets, D forms with d. Groups on a side chain read outwards from the residue. *: point of attachment. C20 diacid = O=C(O)CCCCCCCCCCCCCCCCCCC(=O)*; γGlu = O=C(O)[C@H](CCC(=O)[*:2])N[*:1]; Palmitoyl = CCCCCCCCCCCCCCCC(=O)*; Aib = CC(C)(N)C(=O)O

B1: Compound 5 (peptide)
peptide: H-Y[Aib]EGTFISDYSIELDKIHQQDFVNWLLAQGPSSGAPPPSK([γGlu-Palmitoyl])-NH2
SMILES: CCCCCCCCCCCCCCCC(=O)N[C@@H](CCC(=O)NCCCC[C@H](NC(=O)[C@H](CO)NC(=O)[C@@H]1CCCN1C(=O)[C@@H]1CCCN1C(=O)[C@@H]1CCCN1C(=O)[C@H](C)NC(=O)CNC(=O)[C@H](CO)NC(=O)[C@H](CO)NC(=O)[C@@H]1CCCN1C(=O)CNC(=O)[C@H](CCC(N)=O)NC(=O)[C@H](C)NC(=O)[C@H](CC(C)C)NC(=O)[C@H](CC(C)C)NC(=O)[C@H](Cc1c[nH]c2ccccc12)NC(=O)[C@H](CC(N)=O)NC(=O)[C@@H](NC(=O)[C@H](Cc1ccccc1)NC(=O)[C@H](CC(=O)O)NC(=O)[C@H](CCC(N)=O)NC(=O)[C@H](CCC(N)=O)NC(=O)[C@H](Cc1c[nH]cn1)NC(=O)[C@@H](NC(=O)[C@H](CCCCN)NC(=O)[C@H](CC(=O)O)NC(=O)[C@H](CC(C)C)NC(=O)[C@H](CCC(=O)O)NC(=O)[C@@H](NC(=O)[C@H](CO)NC(=O)[C@H](Cc1ccc(O)cc1)NC(=O)[C@H](CC(=O)O)NC(=O)[C@H](CO)NC(=O)[C@@H](NC(=O)[C@H](Cc1ccccc1)NC(=O)[C@@H](NC(=O)CNC(=O)[C@H](CCC(=O)O)NC(=O)C(C)(C)NC(=O)[C@@H](N)Cc1ccc(O)cc1)[C@@H](C)O)[C@@H](C)CC)[C@@H](C)CC)[C@@H](C)CC)C(C)C)C(N)=O)C(=O)O
Turning to B1, the “EC50, hGIP-R level of cAMP (HEK293 cells expressing human GIP R)” value (“EC50, hGIP-R level of cAMP” below) with human GIP receptor [1] stood at 0.014 nM. In addition, the “EC50 hGIP R (cAMP, HEK293 cells expressing the GIP R)” value (“EC50 hGIP R” below) in the test with human GIP receptor [2] stood at 0.014 nM.

B2: Compound 1 (peptide)
peptide: H-Y[Aib]EGTFISDYSIELDKK([γGlu-Palmitoyl])HQQDFVNWLLAQGPSSGAPPPS-NH2
SMILES: CCCCCCCCCCCCCCCC(=O)N[C@@H](CCC(=O)NCCCC[C@H](NC(=O)[C@H](CCCCN)NC(=O)[C@H](CC(=O)O)NC(=O)[C@H](CC(C)C)NC(=O)[C@H](CCC(=O)O)NC(=O)[C@@H](NC(=O)[C@H](CO)NC(=O)[C@H](Cc1ccc(O)cc1)NC(=O)[C@H](CC(=O)O)NC(=O)[C@H](CO)NC(=O)[C@@H](NC(=O)[C@H](Cc1ccccc1)NC(=O)[C@@H](NC(=O)CNC(=O)[C@H](CCC(=O)O)NC(=O)C(C)(C)NC(=O)[C@@H](N)Cc1ccc(O)cc1)[C@@H](C)O)[C@@H](C)CC)[C@@H](C)CC)C(=O)N[C@@H](Cc1c[nH]cn1)C(=O)N[C@@H](CCC(N)=O)C(=O)N[C@@H](CCC(N)=O)C(=O)N[C@@H](CC(=O)O)C(=O)N[C@@H](Cc1ccccc1)C(=O)N[C@H](C(=O)N[C@@H](CC(N)=O)C(=O)N[C@@H](Cc1c[nH]c2ccccc12)C(=O)N[C@@H](CC(C)C)C(=O)N[C@@H](CC(C)C)C(=O)N[C@@H](C)C(=O)N[C@@H](CCC(N)=O)C(=O)NCC(=O)N1CCC[C@H]1C(=O)N[C@@H](CO)C(=O)N[C@@H](CO)C(=O)NCC(=O)N[C@@H](C)C(=O)N1CCC[C@H]1C(=O)N1CCC[C@H]1C(=O)N1CCC[C@H]1C(=O)N[C@@H](CO)C(N)=O)C(C)C)C(=O)O
Regarding B2, the “EC50, hGIP-R level of cAMP” value with human GIP receptor [1] came out at 0.008 nM. The “EC50 hGIP R” value with human GIP receptor [2] was found to be 0.003 nM.

B3: Compound 3 (peptide)
peptide: H-Y[Aib]EGTFISDYSIELEKK([γGlu-Palmitoyl])HQQDFVNWLLAQGPSSGAPPPS-NH2
SMILES: CCCCCCCCCCCCCCCC(=O)N[C@@H](CCC(=O)NCCCC[C@H](NC(=O)[C@H](CCCCN)NC(=O)[C@H](CCC(=O)O)NC(=O)[C@H](CC(C)C)NC(=O)[C@H](CCC(=O)O)NC(=O)[C@@H](NC(=O)[C@H](CO)NC(=O)[C@H](Cc1ccc(O)cc1)NC(=O)[C@H](CC(=O)O)NC(=O)[C@H](CO)NC(=O)[C@@H](NC(=O)[C@H](Cc1ccccc1)NC(=O)[C@@H](NC(=O)CNC(=O)[C@H](CCC(=O)O)NC(=O)C(C)(C)NC(=O)[C@@H](N)Cc1ccc(O)cc1)[C@@H](C)O)[C@@H](C)CC)[C@@H](C)CC)C(=O)N[C@@H](Cc1c[nH]cn1)C(=O)N[C@@H](CCC(N)=O)C(=O)N[C@@H](CCC(N)=O)C(=O)N[C@@H](CC(=O)O)C(=O)N[C@@H](Cc1ccccc1)C(=O)N[C@H](C(=O)N[C@@H](CC(N)=O)C(=O)N[C@@H](Cc1c[nH]c2ccccc12)C(=O)N[C@@H](CC(C)C)C(=O)N[C@@H](CC(C)C)C(=O)N[C@@H](C)C(=O)N[C@@H](CCC(N)=O)C(=O)NCC(=O)N1CCC[C@H]1C(=O)N[C@@H](CO)C(=O)N[C@@H](CO)C(=O)NCC(=O)N[C@@H](C)C(=O)N1CCC[C@H]1C(=O)N1CCC[C@H]1C(=O)N1CCC[C@H]1C(=O)N[C@@H](CO)C(N)=O)C(C)C)C(=O)O
Consider B3, for which the “EC50, hGIP-R level of cAMP” value with human GIP receptor [1] was 0.014 nM. For the same molecule, the “EC50 hGIP R” value in the test with human GIP receptor [2] is 0.014 nM.

B4: Compound 2 (peptide)
peptide: H-Y[Aib]EGTFISDYSIELDK([γGlu-Palmitoyl])IHQQDFVNWLLAQGPSSGAPPPS-NH2
SMILES: CCCCCCCCCCCCCCCC(=O)N[C@@H](CCC(=O)NCCCC[C@H](NC(=O)[C@H](CC(=O)O)NC(=O)[C@H](CC(C)C)NC(=O)[C@H](CCC(=O)O)NC(=O)[C@@H](NC(=O)[C@H](CO)NC(=O)[C@H](Cc1ccc(O)cc1)NC(=O)[C@H](CC(=O)O)NC(=O)[C@H](CO)NC(=O)[C@@H](NC(=O)[C@H](Cc1ccccc1)NC(=O)[C@@H](NC(=O)CNC(=O)[C@H](CCC(=O)O)NC(=O)C(C)(C)NC(=O)[C@@H](N)Cc1ccc(O)cc1)[C@@H](C)O)[C@@H](C)CC)[C@@H](C)CC)C(=O)N[C@H](C(=O)N[C@@H](Cc1c[nH]cn1)C(=O)N[C@@H](CCC(N)=O)C(=O)N[C@@H](CCC(N)=O)C(=O)N[C@@H](CC(=O)O)C(=O)N[C@@H](Cc1ccccc1)C(=O)N[C@H](C(=O)N[C@@H](CC(N)=O)C(=O)N[C@@H](Cc1c[nH]c2ccccc12)C(=O)N[C@@H](CC(C)C)C(=O)N[C@@H](CC(C)C)C(=O)N[C@@H](C)C(=O)N[C@@H](CCC(N)=O)C(=O)NCC(=O)N1CCC[C@H]1C(=O)N[C@@H](CO)C(=O)N[C@@H](CO)C(=O)NCC(=O)N[C@@H](C)C(=O)N1CCC[C@H]1C(=O)N1CCC[C@H]1C(=O)N1CCC[C@H]1C(=O)N[C@@H](CO)C(N)=O)C(C)C)[C@@H](C)CC)C(=O)O
Regarding B4, the “EC50, hGIP-R level of cAMP” value with human GIP receptor [1] was 0.013 nM. In addition, the “EC50 hGIP R” value with human GIP receptor [2] stood at 0.008 nM.

As for H-Y[Aib]EGTFISDYSIELDKIHQQDFVNWLLAQGPSSGAPPPSK([Peg3-Peg3-γGlu-C20 diacid])-NH2 [Compound 4], in the test with human GIP receptor [1], the “EC50, hGIP-R level of cAMP” value was 0.013 nM. The “EC50 hGIP R” value in the test with human GIP receptor [2] stood at 0.014 nM.
